Reference: paper PMC5473807, “Distribution and kinetics of the Kv1.3-blocking peptide HsTX1[R14A] in experimental rats” (Scientific Reports, 2017)
Where two headings read alike, the source gives them in different places.

Columns and labels:
[1] = Stability of the 64Cu complex against EDTA; type: physicochemical; settings: 0.1 M aqueous EDTA solution, radio-TLC on iTLC-SA plates
Protocol: The radiolabelling yield and stability of ^64Cu-labelled peptide conjugate were monitored with radio-TLC (thin layer chromatography). Thin layer chromatograms were scanned by using a thin layer analyser (Rita Star, Raytest, Germany). The purity of the radiolabelled peptide was assayed using analytical RP-HPLC. Radio-HPLC was performed on a Knauer Smartline System fitted with an activity detector (Ramona Star, Raytest, Germany) using an Aqua C18 column (Phenomenex, 4.6 mm × 250 mm, 5 µm, 125 Å) with a gradient eluent of H2O + 0.05% TFA (A) and acetonitrile + 0.05% TFA (B); in 20 min 0–60% of B, 10 min 60–95% of B, 1 mL/min.
^64Cu-NOTA-HsTX1[R14A] was prepared by incubating ~1.2–24 nmol (5–100 µg) of NOTA-HsTX1[R14A]/100 µL (1 mg/mL H2O stock solution) with ^64CuCl2 (~35–55 MBq) dissolved in 0.2 mL of 0.1 M 2-(N-morpholino)ethansulfonic acid (MES)/NaOH buffer (pH 6.0) at 37 °C for 30 min. Formation of the ^64Cu^II complex was verified by radio-TLC on iTLC-SA plates (instant TLC medium impregnated with […], Agilent Technology) using H2O + 0.1% HCOOH as mobile phase (^64Cu(HCOO)2, R f = 0.4, ^64Cu-NOTA-peptide, R f = 0). The stability of the ^64Cu^II formed was assessed in the presence of 0.1 M EDTA solution. Radio-TLC was performed with iTLC-SA plates (Agilent Technology) using 0.1 M aqueous EDTA solution [(^64Cu]Cu-NOTA-peptide, R f = 0, ^64Cu-EDTA, R f = 0.9).

[2] = Blood clearance kinetics, arterial blood and PET; type: in vivo; settings: whole blood, rat, read-out: blood clearance half-life corrected for the metabolites
Protocol: The procedures are described in detail elsewhere, [34], [35]. Rats were anesthetised using 9% ± 1% desflurane in 30% oxygen and placed on a heat mat. The animals were kept warm under anesthesia until the end of the scan with a total duration of 4 h. The anesthetised animals were localised in a prone position in the axial direction of the scanner. A needle catheter was installed in a lateral tail vein or subcutaneously in the neck for injection using a syringe pump. PET studies were performed with the dedicated small animal PETs NanoPET/CT (Mediso, Budapest, Hungary) and microPET^(R) P4 (Siemens Medical Solutions, Erlangen, Germany). […] Three-dimensional regions of interest (ROI) were determined for subsequent data analysis. The standardised uptake values (SUV, g/mL) and standardised uptake ratios (SUR, as ratio of the SUVs of the tissue of interest and the blood SUV, derived from a region over the caudal arteria abdominalis and vena cava) were used to quantify the activity uptake and kinetics.
The analysis of [^64Cu]Cu-NOTA-HsTX1[R14A] degradation was analysed in one rat after single intravenous injection. […] The samples were again centrifuged (3 min at 14,000 × g), resulting in the precipitate the protein bound fraction (plasma proteins) and the supernatants (e.g. plasma water fraction) were analysed by radio-TLC with RP18 aluminium foil, MeCN/0.1% TFA mixed with H2O/0.1% TFA (v/v 1:1). […]

With CSCC[C@@H]1NC(=O)[C@@H]2CSSC[C@H](NC(=O)[C@H](CO)NC(=O)[C@H](C)NC(=O)COCCOCCNC(=O)CN3CCN(CC(=O)O)CCN(CC(=O)O)CC3)C(=O)N[C@@H](CCCNC(=N)N)C(=O)N[C@@H]([C@@H](C)O)C(=O)N3CCC[C@H]3C(=O)N[C@@H](CCCCN)C(=O)N[C@@H](CC(=O)O)C(=O)N[C@H]3CSSC[C@H](NC(=O)[C@H](CCCCN)NC(=O)[C@H](CCCNC(=N)N)NC(=O)[C@H](CC(N)=O)NC1=O)C(=O)N[C@@H](CCCCN)C(=O)N[C@H]1CSSC[C@H](NC(=O)[C@@H]4CCCN4C(=O)[C@H](CC(=O)O)NC(=O)[C@H](C)NC3=O)C(=O)N[C@@H](C)C(=O)N[C@@H](CCCCN)C(=O)N[C@@H](CCC(=O)O)C(=O)N[C@@H]([C@@H](C)O)C(=O)NCC(=O)N[C@@H](CSSC[C@@H](C(N)=O)NC(=O)[C@H](CCCNC(=N)N)NC(=O)[C@H](CC(N)=O)NC1=O)C(=O)N1CCC[C@H]1C(=O)N[C@@H](Cc1ccc(O)cc1)C(=O)NCC(=O)N[C@@H](CCCCN)C(=O)N2 [[^64Cu]Cu-NOTA-HsTX1[R14A], metal not drawn] the “time for which the 64Cu(II) complex is stable with EDTA” value [1] was “at least 24 h”, the half-life ([2]; iv, i.v.) was 37 min and the half-life ([2]; sc, s.c.) was 51 min.
